Measurements: US11091749B2, “Deimmunized lysostaphin and methods of use” (TRUSTEES OF DARTMOUTH COLLEGE, priority 2014, dated 2021)

Experiment: P. pastoris expression level by SDS-PAGE
Conditions: densitometry of SDS-PAGE gels
Description: After DH5a clones were confirmed for the presence of correct catalytic domain mutation by sequence analysis, the purified plasmid was digested with SacI High-Fidelity restriction enzyme prior to electroporation into P. pastoris strain GS115. The resulting transformants were grown on MD plates (1.34% yeast nitrogen base, 0.000004% biotin, 2% dextrose and 1% agar). For expression studies, clones were grown in BMGY media (1% yeast extract, 2% peptone, 1.34% yeast nitrogen base, 0.000004% biotin, 1% glycerol, 100 mM phosphate buffer, pH 6) at 30° C. in 500 ml shake flasks covered with four layers of cheese cloth for enhanced oxygen flow to the yeast. […] The purity of lysostaphin was determined using SDS-PAGE. The protein concentration was quantified using ND-1000 Spectrophotometer (NanoDrop Technologies; Wilmington, Del.). To ensure accuracy, protein absorbance measure was adjusted using the absorbance adjustment factor of 0.4 for both wild-type lysostaphin and its variants. Briefly, the adjustment factor was calculated as the inverse of the reported Abs 0.1% (=1 g/L) value (ProtParam, ExPASy).
The amount of protein used in each assay was estimated from SDS-PAGE gels. […] The gel was stained using GELCODE Blue Stain Reagent from Thermo Fisher Scientific (Carlsbad, Calif.) and bands quantified using Quantity Tools from Image Lab 5.1 software (Bio-Rad Laboratories; Hercules, Calif.). […]

Substance: Wild-Type: wild-type lysostaphin (SEQ ID NO:49) produced in P. pastoris; aglycosylated Ser126Pro backbone in the design studies [reference compound]
- Expression Level (% WT): 100 % WT
